{"source": "patent US20060110769A1", "about": "(Bayer, published 2006)", "binders": {"B1": {"name": "human prolyl 4-hydroxylase PH-2 (enzyme)", "chain": "MAAAAVTGQRPETAAAEEASRPQWAPPDHCQAQAAAGLGDGEDAPVRPLCKPRGICSRAYFLVLMVFVHLYLGNVLALLLFVHYSNGDESSDPGPQHRAQGPGPEPTLGPLTRLEGIKVGHERKVQLVTDRDHFIRTLSLKPLLFEIPGFLTDEECRLIIHLAQMKGLQRSQILPTEEYEEAMSTMQVSQLDLFRLLDQNRDGHLQLREVLAQTRLGNGWWMTPESIQEMYAAIKADPDADGVLSLQEFSNMDLRDFHKYMRSHKAESSELVRNSHHTWLYQGEGAHHIMRAIRQRVLRLTRLSPEIVELSEPLQVVRYGEGGHYHAHVDSGPVYPETICSHTKLVANESVPFETSCRYMTVLFYLNNVTGGGETVFPVADNRTYDEMSLIQDDVDLRDTRRHCDKGNLRVKPQQGTAVFWYNYLPDGQGWVGDVDDYSLHGGCLVTRGTKWIANNWINVDPSRARQALFQQEMARLAREGGTDSQPEWALDRAYRDARVEL"}}, "target": "mouse hypoxia inducible factor-2 alpha (mouse, UniProt P97481 1-874)", "sequence (P97481 whole entry)": "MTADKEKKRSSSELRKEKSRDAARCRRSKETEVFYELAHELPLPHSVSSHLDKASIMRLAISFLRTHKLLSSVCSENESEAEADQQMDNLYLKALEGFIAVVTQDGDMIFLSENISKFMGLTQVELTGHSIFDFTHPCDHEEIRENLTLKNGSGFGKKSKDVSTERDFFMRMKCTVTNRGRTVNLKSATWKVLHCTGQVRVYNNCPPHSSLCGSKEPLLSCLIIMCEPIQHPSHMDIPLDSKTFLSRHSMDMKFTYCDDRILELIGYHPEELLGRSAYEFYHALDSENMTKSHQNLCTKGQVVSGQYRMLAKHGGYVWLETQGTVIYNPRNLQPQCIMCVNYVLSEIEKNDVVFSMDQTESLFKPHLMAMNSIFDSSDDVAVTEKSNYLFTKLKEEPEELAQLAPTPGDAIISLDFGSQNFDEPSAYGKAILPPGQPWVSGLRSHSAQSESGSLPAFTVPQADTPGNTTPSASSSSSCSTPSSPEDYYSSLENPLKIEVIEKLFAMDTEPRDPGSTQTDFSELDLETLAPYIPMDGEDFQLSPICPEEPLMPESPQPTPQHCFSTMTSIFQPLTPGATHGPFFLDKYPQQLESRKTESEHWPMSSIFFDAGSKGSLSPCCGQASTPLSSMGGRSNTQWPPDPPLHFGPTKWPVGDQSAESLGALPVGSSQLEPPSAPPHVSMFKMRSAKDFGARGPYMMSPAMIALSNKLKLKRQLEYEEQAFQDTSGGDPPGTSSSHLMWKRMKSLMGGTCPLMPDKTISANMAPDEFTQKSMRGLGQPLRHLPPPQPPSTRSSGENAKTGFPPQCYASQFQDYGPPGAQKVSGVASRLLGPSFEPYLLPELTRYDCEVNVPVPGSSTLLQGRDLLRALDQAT", "assay": "cell-based or functional assay"}
{"binder": "B1", "values": [{"measurement": "activity of HIF-2 alpha on the hypoxia responsive reporter gene construct (equal amounts of each plasmid); activity of PH-2 relative to EGLN3", "value": "2 fold less active than EGLN3"}]}
